{
  "source": "patent EP4703380A1",
  "about": "“INTEGRIN-TARGETING ANTIBODIES AND USE THEREOF” (NIO BIOPHARMACEUTICALS. INC., priority 2023, dated 2024)",
  "molecules": {"B1": {"name": "PS4-vcMMAE: PS4 WT maxibody conjugated with vcMMAE (monomethyl auristatin E); average DAR 4.09 (conjugate)", "VH": "QVQLVQSGGGLVNPGGSLRLSCAASGFPFSDHYMSWIRQAPGKGLEWVSYISNRGYTIHYADFVKGRFTISRDNAENTLYLQMNSLRAEDTAVYYCARDRGTIDAFDLWGQGTMVTVSS", "VL": "QSALTQPASVSGSPGQSITIPCSGTSDDIGRYNYVSWYQQHPGKAPKLLIYDVTRRSSGVSSHFSGSKSGSTASLIISGLQADDEADYFCSSFTNNRTVVFGGGTKLTVL", "modifications": "left off: things letters cannot carry; another chain or arm of the molecule; a dimerising Fc or GST; small tags and cut ends"}},
  "key": {"[1]": {"test_system": "Aspc-1", "experiment": "AlamarBlue cell growth inhibition, Aspc-1", "type": "cell-based", "details": "Pancreatic, Aspc-1, 4 days", "procedure": "(§1) First, an appropriate number of cells (3x10^3 to 1x10^4 cells) for each cancer cell line were dispensed into each well of a 96-well plate and cultured for 24 hours at 37°C, 5% CO2, and then the medium was replaced with fresh growth medium. Then, sequentially diluted antibody-drug conjugates were added to each well, and the cells were cultured for 4 days under 37°C, 5% CO2 conditions, and then treated with AlamarBlue (Invitrogen). The fluorescence values were measured at Ex530 and Em590 every 2, 4, and 6 hours (PerkinElmer Victor x4). The obtained fluorescence values were analyzed with Prism4 (GraphPad) to determine the EC50 value. Each experiment was repeated three times."}, "[2]": {"test_system": "Panc-1", "experiment": "AlamarBlue cell growth inhibition, Panc-1", "type": "cell-based", "details": "Pancreatic, Panc-1, 4 days", "procedure": "as §1"}, "[3]": {"test_system": "BT20", "experiment": "AlamarBlue cell growth inhibition, BT20", "type": "cell-based", "details": "TNBC, BT20, 4 days", "procedure": "as §1"}, "[4]": {"test_system": "UMUC-3", "experiment": "AlamarBlue cell growth inhibition, UMUC-3", "type": "cell-based", "details": "bladder, UMUC-3, 4 days", "procedure": "as §1"}, "[5]": {"test_system": "MDA-MB-231", "experiment": "AlamarBlue cell growth inhibition, MDA-MB-231", "type": "cell-based", "details": "TNBC, MDA-MB-231, 4 days", "procedure": "as §1"}, "[6]": {"test_system": "SCaBER", "experiment": "AlamarBlue cell growth inhibition, SCaBER", "type": "cell-based", "details": "bladder, 4 days", "procedure": "as §1"}, "[7]": {"test_system": "PANC-1", "experiment": "Pancreatic cancer xenograft efficacy", "type": "in vivo, mice", "details": "PANC-1 xenograft, NOD/SCID", "procedure": "PANC-1 (3 × 10^6) cancer cells were subcutaneously injected into NOD/SCID (female 5-week-old) mice. When the tumor volume reached […], the PS4-vcMMAE conjugate was intraperitoneally injected at 5 mg/kg or 10 mg/kg once every 5 days for a total of 3 times. The control group was treated with PBS, and the efficacy was evaluated with 3-4 mice per group. After the experiment, the tumors were excised, and the size of the tumor tissues in each experimental group was compared. All animal experiments were performed in accordance with the protocol approved by the Institutional Animal Care and Use Committee (IACUC) of Kangwon National University (KW-210728-3)."}, "[8]": {"test_system": "CoCaB1", "experiment": "AlamarBlue cell growth inhibition, CoCaB1", "type": "cell-based", "details": "bladder, CoCaB1, 4 days", "procedure": "as §1"}, "[9]": {"test_system": "MDA-MB-453", "experiment": "AlamarBlue cell growth inhibition, MDA-MB-453", "type": "cell-based", "details": "TNBC, MDA-MB-453, 4 days", "procedure": "as §1"}, "[10]": {"test_system": "A549", "experiment": "AlamarBlue cell growth inhibition, A549", "type": "cell-based", "details": "Lung, A549, 4 days", "procedure": "as §1"}, "[11]": {"test_system": "SW780", "experiment": "AlamarBlue cell growth inhibition, SW780", "type": "cell-based", "details": "bladder, SW780, 4 days", "procedure": "as §1"}, "[12]": {"test_system": "MDA-MB-231 cells", "experiment": "Triple-negative breast cancer xenograft efficacy", "type": "in vivo, mice", "details": "MDA-MB-231 xenograft", "procedure": "Triple-negative breast cancer (TNBC) MDA-MB-231 cells (2x10^6 cells) were mixed with Matrigel at a 1:1 (v/v) ratio and injected subcutaneously into BALB/c nude or NOD/SCID mice (Nara Bio). When the tumor volume reached 100 mm^3, the PS4-vcMMAE antibody-drug conjugate was administered intraperitoneally at 5 mg/kg or 10 mg/kg once every 5 days for a total of 5 times. 2-3 mice were used in each group. All animal experiments were conducted in accordance with protocols approved by the Institutional Animal Care and Use Committee (IACUC) of Kangwon National University (KW-210728-3)."}, "[13]": {"test_system": "MDA-MB-231 ITGA KO", "experiment": "AlamarBlue cell growth inhibition, ITGA3 knockout negative control line", "type": "cell-based", "details": "breast cancer cell line with ITGA3 subunit knocked out", "procedure": "MDA-MB-231 cells with ITGA3 gene knockout were generated as follows. sgRNAs targeting exon 17 ([…]) of the ITGA3 gene were subcloned using the CRISPR-Cas9-2A-Puro V2.0 (Addgene) system. MDA-MB-231 cells were transfected with CRISPR-Cas9/sgRNA and cultured at 37°C, 5% CO2 for 72 hours. Afterwards, puromycin, the selection marker for the CRISPR-Cas9 vector, was added at a concentration of 250 ng/mL and selected for 18 days. Then, the target protein knockout efficiency was measured using flow cytometry (FACS calibur, FACS Aria, BD Biosciences), and knockout cells were isolated. MDA-MB-231 cells with ITGA3 knockout, i.e., MDA-MB-231/ITGA3 KO cell lines, were analyzed by flow cytometry using 3 µg/mL PS4 antibody and anti-human Fc-gamma specific Alexa Fluor-647 (1:800 dilution, Jackson ImmunoResearch Laboratories Inc.). In addition, MDA-MB-231/ITGA3 KO cell lysate (30 µg) was separated by SDS-PAGE and analyzed by Western blot using anti-ITGA3 (Antibodies-online) and anti-mouse Fc-gamma specific-HRP. Sample loading was compared using anti-beta-actin.\nFirst, an appropriate number of cells (3x10^3 to 1x10^4 cells) for each cancer cell line were dispensed into each well of a 96-well plate and cultured for 24 hours at 37°C, 5% CO2, and then the medium was replaced with fresh growth medium. […] The fluorescence values were measured at Ex530 and Em590 every 2, 4, and 6 hours (PerkinElmer Victor x4). […]"}, "[14]": {"experiment": "Real-time thermal stability (SYPRO Orange)", "type": "physicochemical", "details": "2 µM sample, 10.0°C to 95°C", "procedure": "The method and principle of the experiment were as follows. As the temperature increases, the folded protein denatures, exposing hydrophobic regions, which bind to the SYPRO Orange detection dye, resulting in fluorescence. The point at 1/2 RFUmax is designated as the melting point (Tm). 22.5 µL of the assay sample and 2.5 µL of 50x SYPRO stock solution were added to a 96-well PCR plate (VOLO Semi-Skirted PCR Plate) so that the final concentration of the sample used in the experiment was 2 µM, and the fluorescence was measured using Quantstudio Real-Time PCR (Thermo Fisher scientific) while increasing the temperature by 0.5°C per 10 s from 10.0°C to 95°C. Each sample was tested three times. The fluorescence value of the antibody buffer was set as the background and subtracted, and the value with the greatest slope in the […] of the fluorescence value (dTRFU) was analyzed as the Tm of the corresponding protein."}, "[15]": {"test_system": "MKN45", "experiment": "AlamarBlue cell growth inhibition, MKN45", "type": "cell-based", "details": "Stomach, MKN45, 4 days", "procedure": "as §1"}, "[16]": {"test_system": "MDA-MB-468", "experiment": "AlamarBlue cell growth inhibition, MDA-MB-468", "type": "cell-based", "details": "TNBC, MDA-MB-468, 4 days", "procedure": "as §1"}},
  "note": "Values joined by “and” are separate entries in the source; they are usually repeats but may differ in a detail not shown here. Identical values can stand only once.",
  "data": [
    {"molecule": "B1", "values": [
      {"measurement": "Maximum (% inhibition)", "setting": "[1]", "value": "51.78±25.44", "unit": "%"},
      {"measurement": "IC50", "setting": "[2]", "value": "2.7 ± 1.21", "unit": "nM"},
      {"measurement": "Maximum (% inhibition)", "setting": "[2]", "value": "73.78±2.18", "unit": "%"},
      {"measurement": "IC50", "setting": "[3]", "value": "134 ± 43.4", "unit": "nM"},
      {"measurement": "Maximum (% inhibition)", "setting": "[3]", "value": "79.6±11.3", "unit": "%"},
      {"measurement": "IC50", "setting": "[4]", "value": "2.1 ± 1.2", "unit": "nM"},
      {"measurement": "Maximum (% inhibition)", "setting": "[4]", "value": "90.75±4.02", "unit": "%"},
      {"measurement": "IC50", "setting": "[5]", "value": "0.77 ± 0.63", "unit": "nM"},
      {"measurement": "Maximum (% inhibition)", "setting": "[5]", "value": "77.97±2.03", "unit": "%"},
      {"measurement": "IC50", "setting": "[6]", "value": "1.88 ± 0.79", "unit": "nM"},
      {"measurement": "Maximum (% inhibition)", "setting": "[6]", "value": "89.71±0.61", "unit": "%"},
      {"measurement": "tumor size reduced", "setting": "[7]; 10 mg/kg", "value": "at least 60%"},
      {"measurement": "tumor growth", "setting": "[7]; intraperitoneally 5 mg/kg or 10 mg/kg once every 5 days, 3 times, vs control group (PBS)", "value": "inhibited in a PS4-MMAE dose-dependent manner"},
      {"measurement": "IC50", "setting": "[8]", "value": "2.21 ± 1.4", "unit": "nM"},
      {"measurement": "Maximum (% inhibition)", "setting": "[8]", "value": "95.48±2.44", "unit": "%"},
      {"measurement": "IC50", "setting": "[9]", "value": "9.79 nM and 18.8 nM"},
      {"measurement": "Maximum (% inhibition)", "setting": "[9]", "value": "96.2±0.36% and 87.9±0.61%"},
      {"measurement": "IC50", "setting": "[10]", "value": "5.22 ± 2.17", "unit": "nM"},
      {"measurement": "Maximum (% inhibition)", "setting": "[10]", "value": "77.32±1.02", "unit": "%"},
      {"measurement": "IC50", "setting": "[11]", "value": "1.78 ± 1.05", "unit": "nM"},
      {"measurement": "Maximum (% inhibition)", "setting": "[11]", "value": "90.43±2.32", "unit": "%"},
      {"measurement": "size and weight of the extracted tumor tissue reduced", "setting": "[12]; BALB/c nude or NOD/SCID mice, intraperitoneally 5 mg/kg or 10 mg/kg once every 5 days, 5 times, vs control group", "value": "approximately 55%"},
      {"measurement": "tumor size compared to the time of drug administration", "setting": "[12]; NOD/SCID, 10 mg/kg", "value": "no significant difference"},
      {"measurement": "tumor growth", "setting": "[12]; intraperitoneally 5 mg/kg or 10 mg/kg once every 5 days, 5 times, vs control group", "value": "inhibited in a PS4-MMAE dose-dependent manner"},
      {"measurement": "anticancer efficacy", "setting": "[13]", "value": "no anticancer efficacy was observed"},
      {"measurement": "Tm", "setting": "[14]", "value": "64.67±0.24", "unit": "°C"},
      {"measurement": "IC50", "setting": "[15]", "value": "14.1 ± 4.52", "unit": "nM"},
      {"measurement": "Maximum (% inhibition)", "setting": "[15]", "value": "55.65±6.45", "unit": "%"},
      {"measurement": "Maximum (% inhibition)", "setting": "[16]", "value": "89.88±2.5", "unit": "%"}
    ]}
  ]
}
